The target of one test is T1, GST-Laf1 (S. cerevisiae, UniProt Q03177 1-834).
T1 construct: Laf1/Ymr102c, S. cerevisiae, WD40 repeat protein; plasmid described only as pGEX4T-1 Laf1, no limits stated; Probably the whole open reading frame (surmised); also called Ymr102c; Lam2/Ltc4-Associated Factor 1; source: E. coli BL21(DE3), purified (glutathione beads); not shown: GST, N-terminal, kept
T1 sequence (looked up): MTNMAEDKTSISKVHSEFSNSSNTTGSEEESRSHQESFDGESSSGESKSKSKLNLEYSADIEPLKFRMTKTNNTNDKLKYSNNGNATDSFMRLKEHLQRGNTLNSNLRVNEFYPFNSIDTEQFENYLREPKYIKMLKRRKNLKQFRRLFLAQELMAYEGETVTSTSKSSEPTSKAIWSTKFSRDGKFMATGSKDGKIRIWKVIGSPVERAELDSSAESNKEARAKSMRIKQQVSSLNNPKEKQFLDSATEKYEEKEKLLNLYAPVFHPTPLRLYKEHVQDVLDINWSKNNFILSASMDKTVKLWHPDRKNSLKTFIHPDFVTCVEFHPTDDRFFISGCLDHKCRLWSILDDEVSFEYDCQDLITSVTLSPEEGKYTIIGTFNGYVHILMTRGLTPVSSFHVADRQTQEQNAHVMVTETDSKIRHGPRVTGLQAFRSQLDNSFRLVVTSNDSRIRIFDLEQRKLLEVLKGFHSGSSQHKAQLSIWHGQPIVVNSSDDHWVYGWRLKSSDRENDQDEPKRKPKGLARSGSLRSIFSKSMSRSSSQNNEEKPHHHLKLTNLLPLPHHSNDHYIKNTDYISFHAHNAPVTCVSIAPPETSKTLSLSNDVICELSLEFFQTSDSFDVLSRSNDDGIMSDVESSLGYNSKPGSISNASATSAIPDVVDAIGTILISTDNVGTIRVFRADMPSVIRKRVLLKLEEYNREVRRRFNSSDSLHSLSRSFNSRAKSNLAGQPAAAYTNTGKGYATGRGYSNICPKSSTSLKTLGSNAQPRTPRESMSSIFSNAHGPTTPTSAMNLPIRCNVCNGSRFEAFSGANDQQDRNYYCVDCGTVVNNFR
The test can be described thus: pull-down; GST fusion (bait) and His6-tagged Lam fragment incubated 1 h at 4 °C, complexes on glutathione-agarose beads; binding buffer 81 mM NaCl, 4.5 mM KCl, 1.35 mM MgCl2, 0.09% Triton X-100, 0.1 mg/mL BSA, 20 mM HEPES pH 7.5; four washes; immunoblot (anti-His, anti-GST). Particulars: both partners purified. On the technique in general: A western blot detects proteins with antibodies after separation by electrophoresis.

For a further test, the target named is T2, GST-Dgr2 (S. cerevisiae, UniProt P32330 1-852).
T2 construct: Dgr2/Ykl121w, S. cerevisiae, WD40 repeat protein, paralog of Laf1; plasmid described only as pGEX4T-1 Dgr2, no limits stated; Probably the whole open reading frame (surmised); also called Ykl121w; pFR404; source: E. coli BL21(DE3), purified (glutathione beads); not shown: GST, N-terminal, kept
T2 sequence (looked up): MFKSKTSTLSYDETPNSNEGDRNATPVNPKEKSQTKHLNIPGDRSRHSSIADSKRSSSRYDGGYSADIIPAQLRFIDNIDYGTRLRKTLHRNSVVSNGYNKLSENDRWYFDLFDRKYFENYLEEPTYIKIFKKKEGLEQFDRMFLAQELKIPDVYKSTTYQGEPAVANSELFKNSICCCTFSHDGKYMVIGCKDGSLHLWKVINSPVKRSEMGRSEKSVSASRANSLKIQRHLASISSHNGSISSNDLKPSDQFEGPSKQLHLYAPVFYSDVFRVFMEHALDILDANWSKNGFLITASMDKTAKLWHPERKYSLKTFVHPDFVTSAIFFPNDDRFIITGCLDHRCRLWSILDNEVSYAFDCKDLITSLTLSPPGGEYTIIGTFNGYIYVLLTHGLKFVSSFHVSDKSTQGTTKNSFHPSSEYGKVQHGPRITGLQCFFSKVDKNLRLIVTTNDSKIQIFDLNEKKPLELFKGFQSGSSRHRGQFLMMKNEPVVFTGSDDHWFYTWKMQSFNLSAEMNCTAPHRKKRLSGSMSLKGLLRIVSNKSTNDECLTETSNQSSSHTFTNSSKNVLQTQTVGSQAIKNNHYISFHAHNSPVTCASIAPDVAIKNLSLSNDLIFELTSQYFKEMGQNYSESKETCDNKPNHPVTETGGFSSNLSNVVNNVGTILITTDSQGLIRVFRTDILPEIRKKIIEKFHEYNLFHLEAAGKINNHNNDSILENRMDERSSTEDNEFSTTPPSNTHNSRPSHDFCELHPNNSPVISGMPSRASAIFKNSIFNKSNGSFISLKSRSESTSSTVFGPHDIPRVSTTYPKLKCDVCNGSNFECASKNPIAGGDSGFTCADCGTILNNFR
The test is described as above. Particulars: both partners purified.

B1: Lam2(849–1259)-(His)6 (domain or fragment, S. cerevisiae, UniProt Q06681 849-1259, looked up)
chain: SNNDHLVIEANINAPLGKVVNLLYGEDVSYYERILKAQKNFEISPIPNNFLTKKIRDYAYTKPLSGSIGPSKTKCLITDTLEHYDLEDYVKVLSITKNPDVPSGNIFSVKTVFLFSWDKNNSTKLTVYNSVDWTGKSWIKSMIEKGTFDGVADTTKIMISEIKKILSDEDSNINSKHQASNNESEEEIINLPTIGPPVHDPTEPDFQKGKDDTVIDEKINIPVPLGTVFSLLYGDDTSYIKKIIENQNNFNVCDIPKFVNNAREITYTKKLNNSFGPKQTKCIVTETIEHMDLNSFFMVKQIVRSPDVPYGSSFSVHTRFFYSWGDHNTTNMKVVTNVVWTGKSMLKGTIEKGSIDGQRSSTKQLVDDLKKIISNASSTKKKSRRRGKTVNKRKSSPSTIKNEKNEENFED
notes: tandem StARkin domains, PH domain removed; also called pFR409; source: E. coli BL21(DE3), purified (glutathione beads, cut off with TEV protease); not shown: GST, N-terminal, cleaved; His6, C-terminal, kept
On to B1, for which the binding result in the test with GST-Laf1 is “binds”.

B2: Lam4(371–1177)-(His)6 (domain or fragment, S. cerevisiae, UniProt P38800 371-1177, looked up)
chain: SNLERKTVPSKWSVVSSSTTDGVKPRRRAKSMISAMADKQNTSSDVLQDCKKRLSFNSSNGLTNNDPEYEDREPREMSKKFLNRRSFSPGSISMGMKVLPSTALKYSLNKVKNSTDIASTIIPRPSMSNGRPSSGLRRSSSKSFSSTPVNIIEPSEENGRQSSIRIKGVEYASEKKDAEFHAIFKDSGVSPNERLILDHSCALSRDILLQGRMYISDQHIGFYSNILGWVSTVFIPFKTIVQIEKRATAGIFPNGIVIDTLHTKYTFASFTSRDATYDLITEVWNQIILGKRFRSNSNNTNSSSNSISDDENDDYDDDYDDYGDDDDDLYDNSNNISDSTDMTSSVSIGKPEDLPMPLQTDTPYGTGIPPLGPKIHSPTETVYKPAPNEKLVNESTIHASLGRVVNILFGKDVSYIMAILKAQKNSDISPIPVLVDSPTVSEGKKRDYSYVKTTPGAIGPGKTKCMITETIQHFNLEEYVQVLQTTKTPDVPSGNSFYVRTVYLLSWANNNETKLKLYVSVEWTGKSLIKSPIEKGTFDGVTDATKILVEELGNILTRSATKRKRSSKENTVTVSTLPKMEPSSHAPTEPDIQKDKDDSIIRENENIPAPLGTVVQLLFGSNTEYMQKVITRDKNNVNVETIPKFTPSLVEGGSRHYEYTKKLNNSIGPKQTKCLLTESIEHMDINNYVLVTQTTKTPDVPSGSNFAVESKIFLFWGQHDTTNMTVITKINWTSKSFLKGAIEKGSVEGQKVSVDYMLSELRDIISRAKSKKPVKKVMKSHDKHRPFHSKVEQKSSESRKSDDNKDI
notes: also called Lam4/Ltc3 fragment; pFR407; source: E. coli BL21(DE3), purified (glutathione beads, cut off with TEV protease); not shown: GST, N-terminal, cleaved; His6, C-terminal, kept
As to B2, the binding result with GST-Laf1 and with GST-Dgr2 was “binds” in each case.

B3: Lam2(482–1259; ∆644–760)-(His)6 (domain or fragment, S. cerevisiae, UniProt Q06681 482-1259, looked up)
chain: LGPKELNTSYRNSTYIDMARFENSQSNLSSHRARSKTLPANKALENAVGDEGNSKRNSRYSSYSNDMAFDDADERKFRSMSKKFLNRRSFSPSNLGNKVIPGINLRNSFNKNRNSSSDFFSTNQGQQMPRTSTAGSGNIHAIMGLDSGNDDFKLEGIEYASEKYRNGFGNNDDGTISDSSSAFFDDSDDNDDDGDLDDDDPDINSTDMTSSDDIDADVFNESNDLGKNQKSTNYLLGPNKHSPTTADFKPSNNDHLVIEANINAPLGKVVNLLYGEDVSYYERILKAQKNFEISPIPNNFLTKKIRDYAYTKPLSGSIGPSKTKCLITDTLEHYDLEDYVKVLSITKNPDVPSGNIFSVKTVFLFSWDKNNSTKLTVYNSVDWTGKSWIKSMIEKGTFDGVADTTKIMISEIKKILSDEDSNINSKHQASNNESEEEIINLPTIGPPVHDPTEPDFQKGKDDTVIDEKINIPVPLGTVFSLLYGDDTSYIKKIIENQNNFNVCDIPKFVNNAREITYTKKLNNSFGPKQTKCIVTETIEHMDLNSFFMVKQIVRSPDVPYGSSFSVHTRFFYSWGDHNTTNMKVVTNVVWTGKSMLKGTIEKGSIDGQRSSTKQLVDDLKKIISNASSTKKKSRRRGKTVNKRKSSPSTIKNEKNEENFED
notes: also called ∆PH; source: E. coli BL21(DE3), purified (glutathione beads, cut off with TEV protease); not shown: GST, N-terminal, cleaved; His6, C-terminal, kept
In the case of B3, in the test with GST-Laf1, the binding result is listed as “binds”.

B4: Lam2(482–1259)-(His)6 (domain or fragment, S. cerevisiae, UniProt Q06681 482-1259, looked up)
chain: LGPKELNTSYRNSTYIDMARFENSQSNLSSHRARSKTLPANKALENAVGDEGNSKRNSRYSSYSNDMAFDDADERKFRSMSKKFLNRRSFSPSNLGNKVIPGINLRNSFNKNRNSSSDFFSTNQGQQMPRTSTAGSGNIHAIMGLDSGNDDFKLEGIEYASEKKNSEFHTLFKDCDINPNEKLIVDHSCALSRDILLQGRMYISDAHIGFFSNILGWVSTVFIPFKEIVQIEKKTTAGIFPNGIVIDTLHTKYIFASFMSRDATFDLITDVWNQIILGKKYRNGFGNNDDGTISDSSSAFFDDSDDNDDDGDLDDDDPDINSTDMTSSDDIDADVFNESNDLGKNQKSTNYLLGPNKHSPTTADFKPSNNDHLVIEANINAPLGKVVNLLYGEDVSYYERILKAQKNFEISPIPNNFLTKKIRDYAYTKPLSGSIGPSKTKCLITDTLEHYDLEDYVKVLSITKNPDVPSGNIFSVKTVFLFSWDKNNSTKLTVYNSVDWTGKSWIKSMIEKGTFDGVADTTKIMISEIKKILSDEDSNINSKHQASNNESEEEIINLPTIGPPVHDPTEPDFQKGKDDTVIDEKINIPVPLGTVFSLLYGDDTSYIKKIIENQNNFNVCDIPKFVNNAREITYTKKLNNSFGPKQTKCIVTETIEHMDLNSFFMVKQIVRSPDVPYGSSFSVHTRFFYSWGDHNTTNMKVVTNVVWTGKSMLKGTIEKGSIDGQRSSTKQLVDDLKKIISNASSTKKKSRRRGKTVNKRKSSPSTIKNEKNEENFED
notes: also called Lam2/Ltc4/Ysp2 fragment; pFR391; source: E. coli BL21(DE3), purified (glutathione beads, cut off with TEV protease); not shown: GST, N-terminal, cleaved; His6, C-terminal, kept
B4: the binding result with GST-Laf1 and with GST-Dgr2 was “binds” in each case.

B5: Lam2(482-1259; T518A L519A T1237A V1238A)-(His)6 (domain or fragment, S. cerevisiae, UniProt Q06681 482-1259, looked up)
chain: LGPKELNTSYRNSTYIDMARFENSQSNLSSHRARSKAAPANKALENAVGDEGNSKRNSRYSSYSNDMAFDDADERKFRSMSKKFLNRRSFSPSNLGNKVIPGINLRNSFNKNRNSSSDFFSTNQGQQMPRTSTAGSGNIHAIMGLDSGNDDFKLEGIEYASEKKNSEFHTLFKDCDINPNEKLIVDHSCALSRDILLQGRMYISDAHIGFFSNILGWVSTVFIPFKEIVQIEKKTTAGIFPNGIVIDTLHTKYIFASFMSRDATFDLITDVWNQIILGKKYRNGFGNNDDGTISDSSSAFFDDSDDNDDDGDLDDDDPDINSTDMTSSDDIDADVFNESNDLGKNQKSTNYLLGPNKHSPTTADFKPSNNDHLVIEANINAPLGKVVNLLYGEDVSYYERILKAQKNFEISPIPNNFLTKKIRDYAYTKPLSGSIGPSKTKCLITDTLEHYDLEDYVKVLSITKNPDVPSGNIFSVKTVFLFSWDKNNSTKLTVYNSVDWTGKSWIKSMIEKGTFDGVADTTKIMISEIKKILSDEDSNINSKHQASNNESEEEIINLPTIGPPVHDPTEPDFQKGKDDTVIDEKINIPVPLGTVFSLLYGDDTSYIKKIIENQNNFNVCDIPKFVNNAREITYTKKLNNSFGPKQTKCIVTETIEHMDLNSFFMVKQIVRSPDVPYGSSFSVHTRFFYSWGDHNTTNMKVVTNVVWTGKSMLKGTIEKGSIDGQRSSTKQLVDDLKKIISNASSTKKKSRRRGKAANKRKSSPSTIKNEKNEENFED
notes: also called pFR411; source: E. coli BL21(DE3), purified (glutathione beads, cut off with PreScission protease); not shown: GST, N-terminal, cleaved; His6, C-terminal, kept
As to B5, the binding result in the test with GST-Laf1 is given as “binds”.

Values taken from paper PMC7760575, “TORC2-Dependent Ypk1-Mediated Phosphorylation of Lam2/Ltc4 Disrupts Its Association with the β-Propeller Protein Laf1 at Endoplasmic Reticulum-Plasma Membrane Contact Sites in the Yeast Saccharomyces cerevisiae” (Biomolecules, 2020).
